4 molecules from paper PMC2133107 (The Journal of Cell Biology, 1999) can be followed below.

Assay [1] deals with Ran wild type, Ran-[γ-32P]GTP (UniProt P62826).
In assay [2] the target is Human CRM1 (recombinant, untagged) (human, UniProt O14980 1-1071).
Sequence of Human CRM1 (recombinant, untagged) (human, UniProt O14980 1-1071) (O14980 whole entry): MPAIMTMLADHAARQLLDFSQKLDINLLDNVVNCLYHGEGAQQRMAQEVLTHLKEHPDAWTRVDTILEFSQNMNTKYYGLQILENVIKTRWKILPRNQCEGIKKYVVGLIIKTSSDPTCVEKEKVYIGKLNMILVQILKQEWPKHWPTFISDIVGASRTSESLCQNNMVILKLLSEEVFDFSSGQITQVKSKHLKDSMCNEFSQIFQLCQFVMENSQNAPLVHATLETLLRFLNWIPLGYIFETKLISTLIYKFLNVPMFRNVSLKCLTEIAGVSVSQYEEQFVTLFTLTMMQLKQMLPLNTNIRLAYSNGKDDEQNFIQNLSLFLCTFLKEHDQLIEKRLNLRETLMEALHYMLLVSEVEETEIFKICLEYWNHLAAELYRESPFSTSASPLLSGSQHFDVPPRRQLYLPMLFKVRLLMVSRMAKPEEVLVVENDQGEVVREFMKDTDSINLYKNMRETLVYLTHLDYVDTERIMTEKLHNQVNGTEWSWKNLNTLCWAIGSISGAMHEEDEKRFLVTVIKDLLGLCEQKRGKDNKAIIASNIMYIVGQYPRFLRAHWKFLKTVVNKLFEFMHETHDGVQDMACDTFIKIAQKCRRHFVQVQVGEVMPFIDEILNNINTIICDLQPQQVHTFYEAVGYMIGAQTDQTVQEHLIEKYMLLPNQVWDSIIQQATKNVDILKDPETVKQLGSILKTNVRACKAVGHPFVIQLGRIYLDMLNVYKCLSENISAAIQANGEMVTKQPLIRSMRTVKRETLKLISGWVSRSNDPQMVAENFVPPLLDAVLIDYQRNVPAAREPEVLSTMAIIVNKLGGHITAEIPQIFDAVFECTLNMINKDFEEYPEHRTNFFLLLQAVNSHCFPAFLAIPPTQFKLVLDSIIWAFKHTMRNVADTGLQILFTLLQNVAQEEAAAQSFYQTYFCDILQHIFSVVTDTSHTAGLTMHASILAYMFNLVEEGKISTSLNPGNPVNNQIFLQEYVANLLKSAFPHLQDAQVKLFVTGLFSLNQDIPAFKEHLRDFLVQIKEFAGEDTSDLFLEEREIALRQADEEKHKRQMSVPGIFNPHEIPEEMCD

“Human CRM1 (recombinant, untagged) (from UniProt O14980 1-1071) (natural protein; other documents disagree on this pair)” returned a Kd in assay [1] of over 1 µM.

Consider CLPPLERLTL [Rev-NES peptide 1], for which the Kd in assay [2] was about 50 µM.

As to CPVPLQLPPLERLTLD [Rev-NES peptide 2], in assay [2], the Kd was about 7 µM.

B1: HIV Rev protein (natural protein)
chain: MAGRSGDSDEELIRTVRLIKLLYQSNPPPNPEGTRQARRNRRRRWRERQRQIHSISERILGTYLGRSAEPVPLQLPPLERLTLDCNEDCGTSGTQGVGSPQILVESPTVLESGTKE
As to B1, in assay [2], the Kd is about 0.5 µM.
